Where two headings read alike, the source gives them in different places.
Tests used:
[1] = biological target: T1, SARS-CoV-2 spike 501Y.V2 (pseudovirus of Tables 8/23) (SARS-CoV-2); experiment: cell-based or functional assay
[2] = biological target: T1, SARS-CoV-2 spike 501Y.V2 (pseudovirus …); experiment: cell-based or functional assay; remark: listed apart in the source
[3] = biological target: SARS-CoV-2 spike 'D614 or G614' (pseudovirus of Table 23) (SARS-CoV-2, UniProt P0DTC2 14-1273); experiment: cell-based or functional assay
[4] = biological target: T2, SARS-CoV-2 RBD protein, wild type (recombinant) (SARS-CoV-2, UniProt P0DTC2 319-541); experiment: BLI
[5] = biological target: T2, SARS-CoV-2 RBD protein, wild type …; experiment: BLI (Octet), IgG culture supernatant

B1: No. 139 antibody (Full IgG) (antibody, V domains shown)
VH: QITLKESGPTLVKPTQTLTLTCSFSGFSLSTSGVGVGWIRQPPGKALEWLALIDWDDNKYHTTSLKTRLTISKDTSKNQVVLTMTNMDPVDTATYYCARIPGFLRYRNRYYYYGMDVWGQGTTVTVSS
VL: ELVLTQPPSVSAAPGQKVTISCSGSSSNIGNNYVSWYQQLPGTAPKLLIYDNNKRPSGIPDRFSGSKSGTSATLGITGLQTGDEADYYCGTWDSSLSAGVFGGGTELTVL
IC50 [1]: 0.33 µg/mL | IC50 [2]: 0.33 µg/mL | IC50 [3]: 0.00035 µg/mL

B2: No. 32 antibody (Full IgG; Table 3/4 numbering) (antibody, V domains shown)
VH: EVQLVQSGGGLIQPGGSLRLSCAASEFIVSSNYMTWVRQAPGKGLEWVSIIYPGGSTYYADSVKGRFTISRDNSKNTLYLRMNSLRAEDTAVYYCARDLPLTGTTLDYWGQGTLVTVSS
VL: not shown
Kd [4]: 0.132 nM | koff [4]: 0.000103 s⁻¹ | kon [4]: 779000 M⁻¹ s⁻¹ | IC50 [2]: 0.06 µg/mL | IC50 [3]: 0.00325 µg/mL | Kd [5]: 0.147 nM

Source: patent publication KR20220139244A (dated 2022)
